In the supplement of paper PMC10567573:

B1: NR2F2 (parent)
chain: NIPFFPDLQITDQVALLRLTWSEL

Variants of: B1
Experiment: protein stability index of a GFP-peptide fusion (GPS, HEK-293T) (PSI 1-6); higher = more stable
Conditions: c terminus: a fixed tail appended
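Note: lentivirally expressed fusions sorted by FACS into six bins by GFP to DsRed ratio, PSI derived from sequencing read proportions per bin multiplied by bin number.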

Protein stability index of substitutions, site by site:
Q13: P 2.57 | W 2.93 | G 1.29 | I 4.15 | T 3.06 | M 4.27 | L 4.11 | D 1.85 | V 2.66 | F 1.69 | E 2.2 | R 1.92 | N 1.97 | A 2.75 | H 3.09 | C 3.12 | S 2.33 | K 2.41
S22: M 3.55 | L 3.32 | Y 3.13 | W 3.5 | K 1.68 | P 1.82 | N 2.28 | R 1.53 | G 3.17 | C 3.38 | I 2.24 | A 2.17 | D 2.4 | V 1.67 | T 2.19 | E 2.1 | Q 1.91 | H 2.71 | F 3.38
L24: C 2.62 | A 1.64 | D 2.11
L19: I 2.3 | N 2.4 | H 1.53 | W 2.23 | R 2.08 | A 1.99 | F 2.73 | E 2.04 | S 2.15 | K 2.12 | T 2.23 | M 1.76 | G 2.35 | P 2.24 | Y 1.85 | V 3.94 | Q 2.07 | C 2.44 | D 2.28
R18: C 2.63 | F 2.89 | M 2.28 | E 2.63 | I 3.87 | W 3.72 | V 2.27 | H 1.39 | N 2.45 | T 2.18 | P 2.21 | G 2.25 | S 2.13 | A 2.33 | L 2.89 | D 1.54 | Q 2.18 | K 2.52 | Y 2.75
V14: Y 2.03 | A 1.7 | K 2.13 | N 1.89 | D 1.57 | L 2.72 | R 1.78 | E 1.9 | C 3.12 | G 1.45 | I 2.81 | T 2.38 | P 1.87 | F 2.04 | S 1.74 | H 1.81 | Q 1.99 | M 2.14 | W 3.25
E23: G 2.17 | V 1.76 | F 3.75 | H 3.17 | L 2.57 | R 2.02 | D 3.12 | M 3.42 | W 3.24 | C 3.21 | A 2.71 | Q 2.12 | I 2.96 | S 2.97 | K 1.55 | N 3.71 | Y 2.74 | T 3.56 | P 2.24
Q9: K 1.89 | L 3.06 | E 2.15 | Y 2.88 | D 2.5 | R 2.36 | I 1.92 | P 1.93 | F 2.56 | N 2.63 | G 4.13 | S 2.83 | M 2.9 | C 2.34 | T 2.26 | V 4.4 | W 2.96 | H 2.84 | A 2.86
L16: I 2.59 | D 2.02 | P 1.86 | A 2.41 | R 1.84 | Q 2.33 | T 3.48 | K 1.61 | M 3.26 | G 2.02 | C 2.65 | H 1.67 | V 2.34 | E 1.63 | W 1.65 | S 2.1 | F 2.62 | N 2.03
T11: F 3.29 | I 2.59 | D 1.61 | N 1.67 | Q 2.47 | Y 1.46 | G 2.28 | P 2.02 | V 1.99 | M 3.1 | R 2.52 | W 3.19 | H 2.89 | L 4.1 | C 2.25 | E 2.06 | K 2.55 | S 2.96 | A 3.71
D7: H 2.53 | S 3.27 | Q 3.44 | N 2.78 | Y 2.79 | P 2.46 | F 2.25 | V 2 | L 2.88 | A 1.65 | K 2.03 | T 4.43 | I 2.86 | R 2.46 | E 2.4 | G 3.35 | W 4.12 | M 3.45 | C 2.67
W21: G 2.08 | T 1.79 | F 2.36 | Q 2.21 | K 2.35 | L 2.08 | N 2.37 | M 2 | P 2.42 | V 2.4 | R 2.14 | H 2 | A 2.49 | E 2.78 | Y 1.92 | S 2.36 | D 3.41 | C 1.87 | I 1.65
T20: N 1.56 | F 1.47 | V 1.95 | C 2.16 | Y 2.69 | Q 2.08 | S 3.1 | G 2.23 | P 2.02 | I 4.49 | A 1.83 | H 2.49 | W 2.46 | D 1.81 | R 2.21 | E 1.96 | M 1.89 | K 1.59 | L 2.23
D12: A 3.01 | F 2.42 | L 2.12 | P 4.7 | R 1.66 | N 2.42 | C 2.46 | G 2.42 | W 3.74 | H 3.3 | T 2.86 | K 3.13 | E 3.52 | M 2.37 | Y 4.16 | S 3.57 | I 3.82 | V 4.16
I10: Q 2.31 | R 1.49 | E 1.68 | V 2.68 | N 2.05 | K 2.58 | S 2.09 | C 2.15 | P 2.2 | T 1.72 | F 2.95 | D 1.68 | A 1.75 | W 2.39 | M 2.49 | G 1.4 | H 2.34 | L 2.47 | Y 3.02
L17: E 2.26 | S 1.79 | W 1.92 | H 1.54 | C 1.79 | K 2.43 | F 1.46 | D 2.08 | I 3.52 | R 1.98 | V 3.46 | T 3.49 | N 2.59 | M 2.16 | Q 1.99 | P 2.37 | G 1.92 | A 1.49 | Y 2.15
L8: H 2 | G 1.47 | D 1.98 | R 1.99 | Y 2.05 | F 3.11 | M 2.51 | W 2.64 | P 2.25 | N 1.86 | V 2.09 | K 2.7 | I 2.92 | E 2.11 | C 1.92 | T 2.73 | S 1.82 | A 2.32 | Q 2.22
P6: H 2.31 | R 1.51 | M 2.25 | K 2 | N 2.81 | V 3.65 | S 2.52 | Y 3.14 | Q 2.32 | I 3.02 | T 2.77
A15: D 1.92 | Y 1.67 | K 1.99 | R 2.08 | E 1.55 | G 1.19 | S 2 | T 2.41 | V 2.22 | P 1.69 | L 2.58 | Q 1.9 | H 1.57 | F 3.86 | I 3.62 | C 2.07 | M 2.71 | W 2.03 | N 2.38
